Reference: patent US6803501B2 (Monsanto Technology, LLC, priority 2000, dated 2004)
Positions count from the first letter of the chain named. In names and notes the source's numbering stands.

What was measured:
[1] = biological target: T1, P. hybrida glypS (wt) EPSPS (Petunia hybrida, glyphosate sensitive, wild type) (Petunia hybrida, UniProt P11043); test: kinetic characterization of EPSP synthase (Table 4); assay type: biochemical; settings: read-out: apparent Km for PEP; saturating shikimate-3-phosphate
T1 sequence (P11043 73-516): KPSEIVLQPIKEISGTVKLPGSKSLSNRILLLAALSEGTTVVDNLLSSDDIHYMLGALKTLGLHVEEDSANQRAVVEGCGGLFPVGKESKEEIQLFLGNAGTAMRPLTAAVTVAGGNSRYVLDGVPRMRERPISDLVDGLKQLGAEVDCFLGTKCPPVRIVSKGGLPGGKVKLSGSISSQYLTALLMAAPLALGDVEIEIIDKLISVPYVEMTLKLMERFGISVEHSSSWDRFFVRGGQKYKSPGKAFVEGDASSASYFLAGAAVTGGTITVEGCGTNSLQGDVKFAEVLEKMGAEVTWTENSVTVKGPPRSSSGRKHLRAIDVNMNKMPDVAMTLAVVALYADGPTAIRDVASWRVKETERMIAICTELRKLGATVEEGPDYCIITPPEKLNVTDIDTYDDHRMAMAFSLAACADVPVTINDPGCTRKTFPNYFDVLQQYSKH
Protocol: Final sample volumes are approximately 0.5 ml.

[2] = substrate: C=C(OP(=O)(O)O)C(=O)O; test: as above; assay type: biochemical, Petunia hybrida; settings: other: saturating shikimate-3-phosphate; 25.0 °C
Protocol: Preparation of extracts and radiometric EPSP synthase assays are performed using methods adapted from published procedures (Padgette et al., J. Biol. Chem. 266:22364-22369 (1991). Crown regions are dissected from whole plants, pulverized under liquid nitrogen with a mortar and pestle, then stored at −80° C. prior to extraction. Homogenates are prepared from 0.5 g tissue per sample in 25 ml extraction buffer (100 mM TrisCl, 10% glycerol, 1 mM EDTA, 1 mM benzamidine, 1 mM dithiothreitol, 1 mM 4-(2-aminoethyl)-benzenesulfonyl floride HCl, 0.1 mM leupeptin, pH 7.4) at 4° C. using a model PT3000 Polytron homogenizer (Brinkman Instuments Inc., Westbury, N.Y.). Debris is removed by 0.2 μm filtration, then the resulting supernatant is concentrated and desalted using an Ultrafree-15 centrifugal filtration unit (cat.#UFV2-BGC-10, Millipore Corp., Bedford, Mass.). […] Protein concentrations are determined spectrophotometrically using the Bio-Rad protein assay reagent (cat.#500-0006, Bio-Rad Laboratories, Hercules, Calif.). EPSPS specific activities are determined by assaying 10 μl extract at 25° C. for 5-15 min. […] Reactions are quenched with the addition of 50 μl 9:1 ethanol: 0.1 M acetic acid. […]

[3] = substrate: C=C(OP(=O)(O)O)C(=O)O; test: purified protein, by the assay type; settings: other: saturating shikimate-3-phosphate; 25.0 °C
[4] = substrate: C=C(OP(=O)(O)O)C(=O)O; test: cells, lysate or membranes named; settings: other: saturating shikimate-3-phosphate; 25.0 °C

Molecule `C=C(OP(=O)(O)O)C(=O)O` [PEP, phosphoenolpyruvate] has a Km [1] of 5 µM.

B1: P. hybrida EPSPS variant glypR (Pro-Ser) (Petunia x hybrida; P178S) (protein)
chain: T1 sequence (P11043 73-516) with P106S
Molecule B1 has a Km [2] of 44 µM.

B2: P. hybrida EPSPS variant glypR (Gly-Ala) (Petunia x hybrida; G173A) (protein)
chain: T1 sequence (P11043 73-516) with G101A
B2 gave a Km [2] of 200 µM.

B3: P. hybrida EPSPS variant glypR (Gly-Ala, Pro-Ser) (Petunia x hybrida; G173A/P178S) (protein)
chain: T1 sequence (P11043 73-516) with G101A, P106S
B3 showed a Km [2] of 340 µM.

B4: E. indica glypS EPSPS (Eleusine indica, naturally occurring glyphosate sensitive, wild type) (Eleusine indica) (protein)
chain: AGAEEVVLQPIKEISGVVKLPGSKSLSNRILLLSALAEGTTVVDNLLNSEDVHYMLGALKTLGLSVEADKAAKRAVVVGCGGKFPVEKDAKEEVQLFLGNAGTAMRPLTAAVTAAGGNATYVLDGVPRMRERPIGDLVVGLKQLGADVDCFLGTDCPPVRVKGIGGLPGGKVKLSGSISSQYLSALLMAAPLALGDVEIEIIDKLISIPYVEMTLRLMERFGVKAEHSDSWDRFYIKGGQKYKSPKNAYVEGDASSASYFLAGAAITGGTVTVEGCGTTSLQGDVKFAEVLEMMGAKVTWTETSVTVTGPQREPFGRKHLKAIDVNMNKMPDVAMTLAVVALFADGPTAIRDVASWRVKETERMVAIRTELTKLGASVEEGPDYCIITPPEKLNVTAIDTYDDHRMAMAFSLAACADVPVTIRDPGCTRKTFPDYFDVLSTFVKN
For B4, the Km [3] was 5 µM.

B5: E. indica glypR (Pro-Ser) EPSPS (Eleusine indica, naturally occurring glyphosate resistant, serine for proline at position 107, SEQ ID NO:7) (Eleusine indica) (protein)
chain: B4 chain with P107S, P382L
B5 was tested, and the Km [3] was 7 µM.

B6: Z. mays glypS (wt) EPSPS (Zea mays, glyphosate sensitive, wild type) (Zea mays) (protein)
chain: AGAEEIVLQPIKEISGTVKLPGSKSLSNRILLLAALSEGTTVVDNLLNSEDVHYMLGALRTLGLSVEADKAAKRAVVVGCGGKFPVEDSKEEVQLFLGNAGTAMRPLTAAVTAAGGNATYVLDGVPRMRERPIGDLVVGLKQLGADVDCFLGTDCPPVRVNGIGGLPGGKVKLSGSISSQYLSALLMAAPLALGDVEIEIIDKLISIPYVEMTLRLMERFGVKAEHSDSWDRFYIKGGQKYKSPKNAYVEGDASSASYFLAGAAITGGTVTVEGCGTTSLQGDVKFAEVLEMMGAKVTWTETSVTVTGPPREPFGRKHLKAIDVNMNKMPDVAMTLAVVALFADGPTAIRDVASWRVKETERMVAIRTELTKLGASVEEGPDYCIITPPEKLNVTAIDTYDDHRMAMAFSLAACAEVPVTIRDPGCTRKTFPDYFDVLSTFVKN
In the case of B6, the Km [4] is reported as 5 µM.
